This is an account of results in the NTF2 design screens of Basanta et al. (2020).

This data set can be described thus: protease stability score; higher = more stable; yeast display proteolysis, trypsin and chymotrypsin.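 Further: relative to predicted unfolded state with 0 unfolded-like and 1 meaning tenfold more protease.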
“SEDETEEHKFHNILSHAWETGDEEVLERLADPHVRFFYNGKEQVGRELMVELLRELLKRLGVDRIEIEIKDVRLQGDKARWHGDNVFNGRRVHVHISLVKVNGRWRIHHLDMG” yielded a protease stability score of 1.31. In turn, “SEDETELKRWVERFERSMHTGDEEDLRQMADPNTRFEVGDKEIHGWDLWSKIHRKEREKLGVDNVTTNIKRLEMYGDKLRLESELIFNGQRLEVILIAEKIDGKWVVTSFHIH” registered a protease stability score of 0.129.

For “SEDETHFKHMWKLILDTSITGNEELLKTLFDPHYRLSVDGVEFHGREALRYWLDRVDHVEDHRIKSFELQGDKIYMNGESKTQQGDKTHSHDIHIFTKKIDGQWVIHSLHVR”, the protease stability score came out at 1.16. For “SEDETIALEFLKNWLRDLKTGNEEALSKLLDPNARMVFNGKEHHGREILLDIIKHFVERIDHFNSLHVHDIKIQGDKVHMDLRLIGHVDGREVEHRIHMVIIKYDGRWINQVEEIE” the value was 1.16; for “SEDETLAEEAVEEFEKHMETGDEDELIRLVDPHVKIHFNGRDIHGWKWIHVFLRDLGVDVKRIHVKDIEVFNGVVLLRGEFRFRFNGQDFSKDVENIIVKVDGRWFHHEIRIR”, 1.85. The sequence “SEDETLMRHLVQLFIRREATGDWKKLDELFDPNVRIDINGVEYHGREDWLKHYEDLLKRIKNVRIEIDDQHMEVVGDFIHYDLHGTLEVNGRNIRMQIIIHIRKIDGKWLIEEQIIIIR” showed a protease stability score of 1.4.

“SEDEWWARYVTKLLIHSMKTGDEDLLHELADPSTKLDVGDKRYHGREEFRRLMRELRERADHLTISIKHIEVQGDKVDLDMHIRLEYGDKFIELRVHIHVEKVNGQWRLREREER” registered a protease stability score of 0.879. “SEDFHRIFHMLELIIRAWITGDEELLEKLADPHVRIDIDGVDIVGMELVSTFLHEIRFDLKQIRFKDIHVVNGRIRLHGESDVHVQIGDKEYEIRSEEEWIVTKVNGQWRLTEVRYL” returned a protease stability score of 2.08.

“SEDHDLVREVARLYIDAVKTGDEDLIRFLFDPHVRSEINGVQLHGWEEVFRFWQELRVHHIDLHSVHVEFQGDKAINRNEVHYNGEYGDKRNRYRLDLRIILHKIDGRWIVEEVHLITD” had a protease stability score of 1.45. Turning to “SEDHDTDRHIMDLILRDVFTGDEEEFTRLADPNVKHIDENHFSVGWENVLEMLRFWEDEARMTDIKIHDLEIQGDKIVSHVHIDGEVNGKRRELEVIIYILKVDGKWHLEYFEVR”, the protease stability score was found to be 2.2. In turn, “SEDHEAAHDMLELLRHMELTGDENSLMDLLDPNAKNDVDGKVSVGREEWLRMVHFLLTRFDHIKSIEVEESRHIDGRLNYQTRLRGTVNGQDVELRTEWIVIKVNGKWFLHKVRFV” registered a protease stability score of 1.24. To “SEDHEAAHEVIREWEKVHKTGDEHIFTQLLDPHMRIEIGDKRFHGRDEAVTHFRENLTHWRIHRMEMEDVNSQGEYIIYHVQNFVRINGKVVILDLTIIILKVDGRWVIHSIHIK” belongs 1.24. “SEDHEAFDSMIQSWLDVYLTGDEDIMLELFDPRMRVDINGKDIHGMHHYTDLLHKVRRERGFEEHLRIEDSKVINGKAEFHTHVHIRQGDKNMEFEVTIVVLKINGKWWIKHIEIT” returned a protease stability score of 0.922. “SEDHEALHKFLKELIESSRTGDWEDVTRLADPHTRQDFNGKILHGREELKETLKELGINHMEVILNRIDVQGDKAHVDGHLVIYYNGKEITREREIRMVKIDGVWLMHEVRIK” had a protease stability score of 1.15.

As to “SEDHEATHLIVELLERALKTGNERLWKDLFDPNVRIDINGKYFHGREEYVHFFKEWRFHDSRVHVHEVRVNEHELHIHGEVESHVTYNGQHRNLRLETTLFVIKVNGRWLFRHIEVR”, the protease stability score was 1.5.

The sequence “SEDHEDMDRMFDLLIKLLYTGDEESLEELFDPNTRIDVGDKVLHGRELAVKHVKDRLRRADHIEFHIKDRRAIDGRLEIDMELRIHVDGKDIIIRTKVHLEKVNGRWLIHHIKVH” yielded a protease stability score of 1.38.

The sequence “SEDHEEVRKVTKVYLELFETGDEEELMKLADPEVRLHINGRDLHGREWMERAIRELLEYYGVKHIESWTIHDITIQGDKAVMDTSVKIRVNGREHELKMHIYSRKFDGRWFLTSVRFH” displayed a protease stability score of 1.26. For “SEDHEFSEHALREFIHVLMTGDERSLLKLMDPHTQLIFNGKEIHGMEEIIRIWSEHVKRFGFNHIDHVHIHHVEIQGDKIRIDGTTRGLVNGREHTHRTHLIAIKYNGKWIIHNIKID” the value was 1.9.

As for “SEDHEFVRFIIEQLLHDLFTGDWRRLLKLFDPNAMIEVGDKTLHGMENIYRWHEEHYERLGLSNVEIHILIRKIHIQGDKVHIDGLLRLHFNGRDTEIHVRLHALKIDGKWQLTRVQHD”, the protease stability score came out at 1.89.

Regarding “SEDHEIARLAVEIETHSQLTGDEESMNHLLDPTTRININGRELHGREEAIEWMKRFMEQFDHVKVEVEDISIQGEKLIIRGRFSVIYDGRKVQDHTEVIIVKFNGRWHVKSVHIR”, the protease stability score is 2.58. As for “SEDHEIIRHYFELLVESFRTGDEETTRRLADPNTRLYFNGKTLHGMEAMLEVLLEIRIEEVELHHVEVINGRVEMDGTVRGIFNGRNQEVKVTFHARKINGVWILNWVEIH”, the protease stability score is 2.12. For the sequence “SEDHEISRRMLEMVLDSFDTGDEHIYKDLADPHAKIEVNGKDIHGWDTWASEMVERTERVPGVRKEIHIRDIKSQGDKIEIRGEVIIDFNGKTIRYRVLFVIEKINGRWFIKSEHIK”, the protease stability score stood at 1.04.

Sequence “SEDHELLKRELETFIKHLETGDEDILRRLADPHVRLEYNGKEFHGRDRIVEEWVRIAREIRIKVEIHHITYIGDKLEVDTILKIEQGDKRTEFRIEIFIQKVNGQWLLKEIKIK” came in with a protease stability score of 1.44. In turn, “SEDHELRKHLADRTYKWLATGNFEELMKLMDPNTRFTIGEFNDHGRKAIEWLWRELGVDHFHFREIRVQGDKIHMDTEFEFNGVKVRTHFRVIVIDGRVTSVIILTE” had a protease stability score of 1.34. To “SEDHELVHRFTHFFLRMYFTGDEKEMEDLLDPNTRILWNGKEFHGREEVIEALRYIRSHARIRDFTIHSFEIFDGRAKMDTREHGEIDGRLRTFTLRLHILKVNGRWQFQEIQIE” belongs 2.12; to “SEDHEMAKRIVKQFMEEIFTGDWRDFEELLDPDVRIIIGDKELHGREQFELELRHMRRSIDEMHFTDAKVVGDKMIFDTRMKITIHVNGKELRFTTKSTFFILKVDGVWRIRQITVL”, 2.13; to “SEDHEMVKKLIHDLMRARSTGDEEEFYKLLDPHVRSDINGQETHGREEFVHWFIRHHHEFGFDHVERVHLHHIELIGDKIHVDLIVHITVGEYTIVTHEHLVIWKIDGRWVLRSMDLH”, 1.43. Regarding “SEDHENIERFLTHFVTAIETGNFNELEKLLDPNAQIEINGQRIHGREWFVDHIRRIKNIRFEIHVEDSEFYNGKAHIRTRLILKYGDKEREHDVVLVIRKINGRWVIEWIIIE”, the protease stability score was determined as 1.54. For the sequence “SEDHENLRKSLEFFKHVVDTGDFRKLLQLADPNTRIIINGQTVHGMELTQKIWIHQFREAGHTRIHIRIEDIDVQGDKIQIDGKLDINGQERDTNLFIEKVNGRWIIRSIEFQ”, the protease stability score worked out at 1.38. As for “SEDHERERRVNEEFLTAMWTGDEKWIMNLADPNVRTEWNGVENIGRETISEHLDHQKKRLGVKHIEIKHVEIINGVLHMHGRLDVNGVETEVIIRSFIIDGRLTELIFEIR”, the protease stability score came to 0.819.

In the case of “SEDHERMKEMIELTLHAIFTGDEDLLKRLLDPHTRIVVNGQDRHGRHALEWFLSVLGIKHIHYEIVRTHLVNGVLHNHIHGHLNVNGKTYELEVEITIRKINGRWLMHVVQWDII”, the protease stability score worked out at 1.99.

Consider “SEDHERTEIAFKIMLHIFDTGDEHTMHRLVDPNARLRIGDKDWHGREFFFDVISRIKNLRIEELSIEDDDFVNGRIILHGRRNGSIGDKEIDTIVHLLIKKVDGRWRIEHVHNE”, for which the protease stability score turned out to be 1.36. In turn, “SEDHEVARDIMEILLHLYLTGNEEDLKQFFDPHVRLVIGDKNIHGREEVVNHLKRILDRIPNVRVKHFTLHDIRIIGDKIYLNTEIHVKINGRDHRSETRWVILKVDGVWHLHSVEVG” displayed a protease stability score of 2.05. To “SEDHEVLRVALELMLHFLTTGDWHLLRKLMDPEVRIRVGEKHIHGMDLILSEWVRVIRELGVKHYHIEVKRDHHQGDKIHLDGTLHIDVNGRQIHIRTEIIAHKVDGKWIHESQVIN” belongs 0.988; to “SEDHHETQRALELLVTFLRTGDEHTLERLMDPDTRSIIDGVELHGREDMKEVLEWLVKQADHLESVHVRYLNVQGDKAQIHVELRGRFNGKHSIHEVHITTVKINGKWLITEVEFR”, 1.93; to “SEDHHLMEHAIEIMLEMIRTGDEQKYLNLVDPHARLEIDGREHHGWKRMREVFRWLGVDHSDVRHVNVQGEKVEVDTIIEVGDKRIEVIVIVRKINGRWVIEEVRVH”, 0.549. For the sequence “SEDHHSLRNAWELLIKSIKTGDENLMERFADPSTKSRIDGVELVGREEVVHYFMQLRVKDVKLDEVDVVDGRVVIDGTLHGEYNGREETHKVRLFINKVDGQWILHSVEFH”, the protease stability score was 0.938. “SEDHKASHFNLILLLRAINTGDEDLEKELADPHVRYEFNGVDLVGMEDWVRFLEEIRVHPRDVKIQRHRVVNGRITFDVRLEGEFTYNGRTYRDTRETTAFVLKVNGRWIMHLHRID”: the protease stability score was found to be 1.48. Turning to “SEDHKETEEAMHKIRHDLETGDEKSWHEQADPNTRIDINGVDLHGREWASKFYSDVMQKVKGATVHLKHVHIFENRLIVDGIEIVNGRTHRVHLIADKINGRWVIREIRVE”, the protease stability score is 1.06. With “SEDHKQAEEFMHRVAHNVLTGDEEKLDELIDPDARLEIGDKEHHGREIFIEFWRQLRVRDIKIRHWEIIGDKIFIRGEMNGIVDGRTRIFDIIVVMVKINGKWTLKRVEIK”, the protease stability score is 1.5. To “SEDHLEARETVTEELRARQTGDERRLDELIDPNTRLEINGKEVHGMEQIIEETRRLGVDVVEIRLERHDRFNGVIHVRGRLHYNWNGKSIDHETELIVYKVDGQWIVHSIHVL” belongs 1.05. Sequence “SEDHRDAEKFLRLFMELFKTGDFEELFRLVDPNVRLEINGREFHGRELVKKLLKEEHDRYKNATSEVEIDRIHIQGDWVHADIELRLDYNGKTLRWETHLVMLKVDGRWFVRSYSER” gave a protease stability score of 2.6.

“SEDHREARHAVHVFLHLLETGDEDHLVKLLDPNVRYVIGDKTHHGWEELERIRNKFKNIRITLRDRDFHIFDGRLLVLIRGELEFDGRRVDFEVITYIEKINGRWIVSEFRIHLN” came in with a protease stability score of 1.5. For “SEDHRHAMEFIHHMVRAIHTGDEQILTEYLDPHVRIENENETLHGWEHRTEWMKRFDHIDRHIIVRHVEIQGNKVKVDAELRFRLHQGDFVEENEIRLRIIILKVDGRWVLHKVRFI” the value was 1.35; for “SEDHRMMKEALDKLIDSIETGDPELYLRLFDPDTQTRIGDKHIHGWEEIEKIFRKILERFDHFEHMHLEHFDIQGNYIHLDIRLWGKVNGKRITLNIRVVVVKYNGRWTIREESLT”, 1.72. For “SEDIDIAREMADIIIKYWETGDEDNVRQLMDPNVKFHIGDKVNIGREWMLEFVRHWKEHARMHLKVEDFRIVGDKIHVDTRIELNVNGREMHIDLHIHLRIVNGRLKSSHIEHR” the value was 1.19; for “SEDIEELRKVFEDWVRILRTGDEKSHKELMDPTYRNDQGEFHYHGMEDLEKFTRRYDHVNLIFRDMRLVNGVARVDGEIQLHQGDFKIDTHVIIYMLKIDGQWRIRSIEIR”, 2.08.
